Experimental data as given in US20180120302A1.

Columns and labels:
T4L-L99A-A130S [1] = biological target: T4L-L99A-A130S (UniProt P00720); assay: BSI, global analysis, kf1 (high affinity mode), 25° C., pH 8.0
T4L-D70N [2] = biological target: T4L-D70N (UniProt P00720); assay: as above
T4L-L99A [3] = biological target: T4L-L99A (UniProt P00720); assay: Fluorescence, KD2 (low affinity mode), T = 37° C. and pH = 7.2
T4L-L99A-A130S [4] = biological target: T4L-L99A-A130S (UniProt P00720); assay: BSI, global analysis, KD2 (low affinity mode), 25° C., pH 8.0
T4L-D70N [5] = biological target: T4L-D70N (UniProt P00720); assay: as above
T4L-L99A [6] = biological target: T4L-L99A (UniProt P00720); assay: ITC, KD1 (high affinity mode), T = 37° C. and pH = 7.2
T4L-L99A-A130S [7] = biological target: T4L-L99A-A130S (UniProt P00720); assay: BSI, global analysis, KD1 (high affinity mode), 25° C., pH 8.0
T4L-D70N [8] = biological target: T4L-D70N (UniProt P00720); assay: as above
T4L-L99A-A130S [9] = biological target: T4L-L99A-A130S (UniProt P00720); assay: BSI, global analysis of kinetic traces
T4L-L99A-A130S [10] = biological target: T4L-L99A-A130S (UniProt P00720); assay: BSI, global analysis, kr1 (high affinity mode), 25° C., pH 8.0
T4L-D70N [11] = biological target: T4L-D70N (UniProt P00720); assay: as above
T4L-L99A [12] = biological target: T4L-L99A (UniProt P00720); assay: BSI steady-state, KD2 (low affinity mode), T = 37° C. and pH = 7.2
T4L-L99A-A130S [13] = biological target: T4L-L99A-A130S (UniProt P00720); assay: BSI, global analysis, kf2 (low affinity mode), 25° C., pH 8.0
T4L-D70N [14] = biological target: T4L-D70N (UniProt P00720); assay: as above
T4L-L99A [15] = biological target: T4L-L99A (UniProt P00720); assay: Fluorescence, KD1 (high affinity mode), T = 37° C. and pH = 7.2
T4L-D70N [16] = biological target: T4L-D70N (UniProt P00720); assay: BSI corrected steady-state data, 25° C., pH 8.0
T4L-L99A [17] = biological target: T4L-L99A (UniProt P00720); assay: BSI steady-state, KD1 (high affinity mode), T = 37° C. and pH = 7.2
T4L-L99A-A130S [18] = biological target: T4L-L99A-A130S (UniProt P00720); assay: BSI, global analysis, row printed kr1 but read as kr2 (low affinity mode), 25° C., pH 8.0
T4L-D70N [19] = biological target: T4L-D70N (UniProt P00720); assay: as above
T4L-L99A [20] = biological target: T4L-L99A (UniProt P00720); assay: ITC, KD2 (low affinity mode), T = 37° C. and pH = 7.2

Chain of αB-D3 (αB-crystallin with serine residues 19, 45 and 59 mutated to aspartic acids) (P02511 other isoform, or with tags, fused parts or gaps limits assumed, change not shown): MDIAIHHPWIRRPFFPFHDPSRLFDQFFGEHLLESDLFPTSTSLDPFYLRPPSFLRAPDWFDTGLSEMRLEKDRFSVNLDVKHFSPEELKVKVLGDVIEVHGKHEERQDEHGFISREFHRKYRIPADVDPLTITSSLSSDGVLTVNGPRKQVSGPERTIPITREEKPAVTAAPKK

“αB-D3 (αB-crystallin with serine residues 19, 45 and 59 mutated to aspartic acids) (from UniProt P02511 1-175)” showed a kon (T4L-L99A-A130S [1]) of 58500 M⁻¹ s⁻¹, a kon (T4L-D70N [2]) of 25500 M⁻¹ s⁻¹ and a Kd (T4L-L99A [3]) of 1000 nM. It also gave a Kd (T4L-L99A-A130S [4]) of 33000 nM, a Kd (T4L-D70N [5]) of 29100 nM and a Kd (T4L-L99A [6]) of 15 nM. It also gave a Kd (T4L-L99A-A130S [7]) of 132 nM, a Kd (T4L-D70N [8]) of 595 nM and a fold increase of affinity in the high affinity mode relative to D70N (T4L-L99A-A130S [9]) of 4 fold. It also gave a koff (T4L-L99A-A130S [10]) of 5.03e-06 s⁻¹, a koff (T4L-D70N [11]) of 0.0152 s⁻¹ and a Kd (T4L-L99A [12]) of 3110 nM. For the same substance, the kon (T4L-L99A-A130S [13]) was 2970 M⁻¹ s⁻¹, the kon (T4L-D70N [14]) was 2340 M⁻¹ s⁻¹ and the Kd (T4L-L99A [15]) was 20 nM. The reduction in the magnitude of the BSI signal relative to L99A/A130S (T4L-D70N [16]) was 40%, the Kd (T4L-L99A [17]) was 1 nM and the koff (T4L-L99A-A130S [18]) was 0.115 s⁻¹. For the same substance, the koff (T4L-D70N [19]) was 0.0682 s⁻¹ and the Kd (T4L-L99A [20]) was 2440 nM.
